From paper PMC2798062

Tests used:
[1] = tested on: C[C@H]1C=C2C=C[C@H](C)[C@H](CC[C@@H](O)C[C@@H](O)CC(=O)O)[C@H]2[C@@H](O)C1; experiment: purified protein; format: biochemical, Aspergillus terreus; settings: 2 mM DMB-SMMP fixed, 10% DMSO, 25°C
CCC(C)(C)C(=O)SCCC(=O)OC = experiment: purified protein; format: biochemical, Aspergillus terreus; settings: 2 mM MJA fixed; 10% DMSO; table header prints mM^-1, text b12 prints mM; 25.0 °C

LovD G0 (Aspergillus terreus; A190T/A86V/C40A/C60N/D12G/G275S/H161Y/K26E/V334F)
Km ([1]; mutant G7): 700 ± 40 µM
kcat ([1]; mutant G7): 0.08 ± 0.001 s⁻¹

LovD G0 (Aspergillus terreus; C40A/C60N)
Km [1]: 770 ± 170 µM
kcat [1]: 0.011 ± 0.0005 s⁻¹
Km (CCC(C)(C)C(=O)SCCC(=O)OC): 0.67 ± 0.12 mM
kcat (CCC(C)(C)C(=O)SCCC(=O)OC): 0.011 ± 0.0005 s⁻¹

LovD G0 (Aspergillus terreus; A190T/A86V/C40A/C60N/D12G/G275S/H161Y/K26E/L361M/V334D)
Km ([1]; mutant G6): 700 ± 70 µM
kcat ([1]; mutant G6): 0.055 ± 0.001 s⁻¹

LovD G0 (Aspergillus terreus; A190T/A86V/C40A/C60N/D12G/G275S)
Km ([1]; mutant G3): 770 ± 110 µM
kcat ([1]; mutant G3): 0.031 ± 0.0015 s⁻¹

LovD G0 (Aspergillus terreus; A86V/C40A/C60N)
Km ([1]; mutant G1): 740 ± 160 µM
kcat ([1]; mutant G1): 0.0132 ± 0.0005 s⁻¹

LovD G0 (Aspergillus terreus; A190T/A86V/C40A/C60N/D12G/G275S/H161Y/K26E)
Km ([1]; mutant G5): 740 ± 30 µM
kcat ([1]; mutant G5): 0.0435 ± 0.0005 s⁻¹
